Assay [1] deals with Stat91L, activated (from IFN-γ-treated C91L or Cmx cells) (human) (UniProt P42224). The assay is described as follows: cell-based or functional assay.
Assay [2] has as its target Stat84, activated (from IFN-γ-treated C84 or Cmx cells) (human) (UniProt P42224). Kind of assay: cell-based or functional assay.
The target of assay [3] is tyrosine phosphorylated Stat91 (human) (UniProt P42224). Kind of assay: glycerol gradient sedimentation.
Assay [4] has the same target. The assay is described as follows: native gel electrophoresis, Ferguson plots.

Chain of Stat84, activated (from IFN-γ-treated C84 or Cmx cells) (human) (P42224 2-712 limits assumed): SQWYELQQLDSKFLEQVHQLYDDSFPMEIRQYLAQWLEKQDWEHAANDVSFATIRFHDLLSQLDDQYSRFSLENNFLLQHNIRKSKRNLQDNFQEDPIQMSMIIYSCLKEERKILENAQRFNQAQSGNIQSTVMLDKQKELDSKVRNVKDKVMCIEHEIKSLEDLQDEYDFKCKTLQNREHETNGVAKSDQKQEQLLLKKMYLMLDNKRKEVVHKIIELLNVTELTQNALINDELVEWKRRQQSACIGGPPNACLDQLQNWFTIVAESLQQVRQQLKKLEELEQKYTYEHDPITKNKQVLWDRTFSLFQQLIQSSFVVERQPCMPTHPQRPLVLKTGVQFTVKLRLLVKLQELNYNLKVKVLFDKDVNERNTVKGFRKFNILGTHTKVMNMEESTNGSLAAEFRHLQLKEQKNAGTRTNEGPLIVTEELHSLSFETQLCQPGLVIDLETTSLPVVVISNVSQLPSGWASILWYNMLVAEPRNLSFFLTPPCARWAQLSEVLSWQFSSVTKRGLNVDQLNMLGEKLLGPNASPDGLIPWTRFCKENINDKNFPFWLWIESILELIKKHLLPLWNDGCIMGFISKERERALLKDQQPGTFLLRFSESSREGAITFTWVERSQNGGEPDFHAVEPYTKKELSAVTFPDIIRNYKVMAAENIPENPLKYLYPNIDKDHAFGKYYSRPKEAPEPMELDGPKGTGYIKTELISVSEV
Chain of Stat91L, activated (from IFN-γ-treated C91L or Cmx cells) (human) (P42224 2-750, stated change not applied): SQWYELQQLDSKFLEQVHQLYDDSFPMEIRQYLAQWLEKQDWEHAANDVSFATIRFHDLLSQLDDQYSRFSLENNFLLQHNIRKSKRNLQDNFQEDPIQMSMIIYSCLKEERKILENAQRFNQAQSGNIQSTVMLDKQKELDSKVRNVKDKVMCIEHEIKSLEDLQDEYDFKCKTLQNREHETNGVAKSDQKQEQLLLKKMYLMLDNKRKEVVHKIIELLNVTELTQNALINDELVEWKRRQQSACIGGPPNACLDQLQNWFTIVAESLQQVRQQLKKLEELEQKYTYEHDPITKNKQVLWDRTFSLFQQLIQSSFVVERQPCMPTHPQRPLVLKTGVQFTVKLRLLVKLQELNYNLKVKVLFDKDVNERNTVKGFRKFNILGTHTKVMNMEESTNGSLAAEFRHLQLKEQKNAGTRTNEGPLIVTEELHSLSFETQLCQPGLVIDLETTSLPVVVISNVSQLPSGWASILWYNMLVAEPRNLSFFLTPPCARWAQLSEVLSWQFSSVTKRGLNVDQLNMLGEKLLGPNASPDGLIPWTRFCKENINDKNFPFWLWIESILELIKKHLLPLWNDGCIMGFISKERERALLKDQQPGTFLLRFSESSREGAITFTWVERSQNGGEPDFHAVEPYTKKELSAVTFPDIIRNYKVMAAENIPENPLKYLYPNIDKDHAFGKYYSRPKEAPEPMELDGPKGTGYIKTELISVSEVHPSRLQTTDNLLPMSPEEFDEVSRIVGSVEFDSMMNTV

In the case of “GST-91SH2 (glutathione-S-transferase fused to the Stat91 SH2 domain, amino acids 573 to 672) (from UniProt P42224 573-672)”, the fusion protein concentration that promoted heterodimer formation (gel mobility shift) in assay [1] and in assay [2] was 0.5 to 5 µM throughout.

Regarding “tyrosine phosphorylated Stat91 (from UniProt P42224 2-750)”, the native molecular weight in assay [3] and in assay [4] was 180 kD in each case.

The values above are taken from US20050079543A1.
